Results taken from publication PMC12084609, “Structural insights into small-molecule agonist recognition and activation of complement receptor C3aR” (The EMBO Journal, 2025).
Changes are numbered by the printed parent chain. “And” between values parts separate entries of the source, which are not always exact repeats. Equal entries are not always repeated.

Tests used:
Assay type in all cases: cell-based
C3aR H81^2.63A = molecular target: T1, C3aR H81^2.63A (Homo sapiens, UniProt Q16581, H81A); assay: GloSensor-based cAMP assay, C3aR mutant H81A; conditions: for cAMP response (% Forskolin): H812.63A, single replicates
T1 construct: expressed in transfected cells; host or cells: HEK293T
T1 sequence (Q16581 1-482 H81A): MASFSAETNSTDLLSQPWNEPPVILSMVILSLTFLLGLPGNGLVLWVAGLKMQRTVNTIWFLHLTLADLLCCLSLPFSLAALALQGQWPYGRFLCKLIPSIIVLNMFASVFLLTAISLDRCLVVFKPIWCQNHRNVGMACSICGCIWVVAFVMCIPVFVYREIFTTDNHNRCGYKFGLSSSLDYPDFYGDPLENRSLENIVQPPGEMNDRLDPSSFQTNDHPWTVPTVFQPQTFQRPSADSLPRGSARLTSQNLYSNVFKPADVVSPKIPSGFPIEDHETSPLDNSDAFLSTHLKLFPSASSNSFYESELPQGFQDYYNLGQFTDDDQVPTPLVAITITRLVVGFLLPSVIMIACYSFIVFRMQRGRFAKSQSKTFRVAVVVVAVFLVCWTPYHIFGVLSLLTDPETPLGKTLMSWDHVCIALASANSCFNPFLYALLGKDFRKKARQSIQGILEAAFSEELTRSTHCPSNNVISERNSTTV
Experimental: (§1) HEK293T cells were seeded on 6-well plates (NEST) and transfected with pGlosensor™-22F plasmids (Promega) and pcDNA3.1 plasmids encoding C3aR or its mutants an with N-terminal FLAG tag. After 48 h, cells were detached with Accutase solution (Sigma-Aldrich) and washed with PBS, and resuspended in assay buffer (CO2-independent medium with 0.5 mg mL^−1D-luciferin). 100,000–200,000 cells were seeded on 96-well white bottom plates (SPL) and incubated at 37 °C for 45 min followed by 45 min incubation at room temperature. After 90 min of incubation, basal luminescence signals were recorded. In total, 25 μl of test ligand with various concentrations and 1 μM Forskolin (Sigma-Aldrich) were treated to the cells and luminescence signals were measured by Tristar 2 LB 942 multimode reader (Berthold). […] Relative luminescence unit (%) was calculated with the signal of wells treated with vehicle as 0% and the signal of wells treated with 1 μM Forskolin as 100% (DiRaddo et al, [2014]). Nonlinear regression was performed using a three-parameter logistic equation.

C3aR H418^7.36A = molecular target: T2, C3aR H418^7.36A (Homo sapiens, UniProt Q16581, H418A); assay: GloSensor-based cAMP assay, C3aR mutant H418A; conditions: for cAMP response (% Forskolin): single replicates
T2 construct: expressed in transfected cells; host or cells: HEK293T
T2 sequence (Q16581 1-482 H418A): T1 sequence (Q16581 1-482 H81A) with A81H, H418A
Experimental: as §1

C3aR Y174^ECL2A = molecular target: T3, C3aR Y174^ECL2A (Homo sapiens, UniProt Q16581, Y174A); assay: GloSensor-based cAMP assay, C3aR mutant Y174A; conditions: for cAMP response (% Forskolin): Y174ECL2A, single replicates
T3 construct: expressed in transfected cells; host or cells: HEK293T
T3 sequence (Q16581 1-482 Y174A): T1 sequence (Q16581 1-482 H81A) with A81H, Y174A
Experimental: as §1

[1] = Dunnett's multiple comparisons test, WT minus mutant

With “C3a: anaphylatoxin C3a, natural peptide ligand of C3aR (a 77-amino acid peptide), Sigma-Aldrich” the “Mean Diff. of pIC50, WT vs. H81A” value (C3aR H81^2.63A; [1]) was 0.390, the “ΔpIC50 ± SE of Diff.” value (C3aR H81^2.63A; H81^2.63A relative to WT C3aR) was -0.39 ± 0.05 and the IC50 (C3aR H81^2.63A; H81^2.63A, dose-response plot, read-out: IC50) was 7.45 nM. The “pIC50 (Replicate)” value (C3aR H81^2.63A; H81^2.63A, individual replicates) was 8.23 and 8.03 and 8.24 and 8.26 and 7.82 and 8.16 and 8.00, the “pIC50 ± SEM (Mean)” value (C3aR H81^2.63A; H81^2.63A, mean of independent experiments) was 8.11 and the “cAMP response (% Forskolin)” value (C3aR H81^2.63A; Log[C3a (M)] -7) was 16.97 % Forskolin and 18.16 % Forskolin and 16.81 % Forskolin and 12.45 % Forskolin and 16.49 % Forskolin and 12.75 % Forskolin and 10.89 % Forskolin. The “cAMP response (% Forskolin)” value (C3aR H81^2.63A; Log[C3a (M)] -8) was 37.38 % Forskolin and 51.57 % Forskolin and 36.98 % Forskolin and 30.38 % Forskolin and 58.58 % Forskolin and 40.19 % Forskolin and 48.13 % Forskolin, the “cAMP response (% Forskolin)” value (C3aR H81^2.63A; Log[C3a (M)] -9) was 95.75 % Forskolin and 95.02 % Forskolin and 98.54 % Forskolin and 105.34 % Forskolin and 92.35 % Forskolin and 92.22 % Forskolin and 94.48 % Forskolin and the “cAMP response (% Forskolin)” value (C3aR H81^2.63A; Log[C3a (M)] -10) was 97.40 % Forskolin and 98.52 % Forskolin and 99.76 % Forskolin and 98.68 % Forskolin and 88.34 % Forskolin and 99.56 % Forskolin and 95.62 % Forskolin. The “cAMP response (% Forskolin)” value (C3aR H81^2.63A; Log[C3a (M)] -11) was 96.99 % Forskolin and 98.64 % Forskolin and 99.98 % Forskolin and 102.79 % Forskolin and 93.58 % Forskolin and 91.17 % Forskolin and 97.12 % Forskolin, the “cAMP response (% Forskolin)” value (C3aR H81^2.63A; Log[C3a (M)] -12) was 95.00 % Forskolin and 97.54 % Forskolin and 97.75 % Forskolin and 103.25 % Forskolin and 100.37 % Forskolin and 97.05 % Forskolin and 96.06 % Forskolin and the “Mean Diff. of pIC50, WT vs. H418A” value (C3aR H418^7.36A; [1]) was 0.008. For the same substance, the “cAMP response (% Forskolin)” value (C3aR H418^7.36A; H418A, Log[C3a (M)] -7) was 25.95 % Forskolin and 18.34 % Forskolin and 14.90 % Forskolin and 10.15 % Forskolin, the “cAMP response (% Forskolin)” value (C3aR H418^7.36A; H418A, Log[C3a (M)] -8) was 26.38 % Forskolin and 19.33 % Forskolin and 14.37 % Forskolin and 9.75 % Forskolin and the “cAMP response (% Forskolin)” value (C3aR H418^7.36A; H418A, Log[C3a (M)] -9) was 37.00 % Forskolin and 39.46 % Forskolin and 38.86 % Forskolin and 18.94 % Forskolin. The “cAMP response (% Forskolin)” value (C3aR H418^7.36A; H418A, Log[C3a (M)] -10) was 73.80 % Forskolin and 84.21 % Forskolin and 84.87 % Forskolin and 53.38 % Forskolin, the “cAMP response (% Forskolin)” value (C3aR H418^7.36A; H418A, Log[C3a (M)] -11) was 92.78 % Forskolin and 94.37 % Forskolin and 96.55 % Forskolin and 91.56 % Forskolin and the “cAMP response (% Forskolin)” value (C3aR H418^7.36A; H418A, Log[C3a (M)] -12) was 97.08 % Forskolin and 98.99 % Forskolin and 94.98 % Forskolin and 97.61 % Forskolin. For the same substance, the “ΔpIC50 ± SE of Diff.” value (C3aR H418^7.36A; H418^7.36A relative to WT C3aR) was -0.008 ± 0.011, the IC50 (C3aR H418^7.36A; H418^7.36A, dose-response plot, read-out: IC50) was 3.34 nM and the “pIC50 (Replicate)” value (C3aR H418^7.36A; H418^7.36A, individual replicates) was 8.55 and 8.43 and 8.42 (2×) and 8.38 and 8.70. The “pIC50 ± SEM (Mean)” value (C3aR H418^7.36A; H418^7.36A, mean of independent experiments) was 8.49, the “cAMP response (% Forskolin)” value (C3aR H418^7.36A; H4187.36A, Log[C3a (M)] -7) was 18.06 % Forskolin and 18.98 % Forskolin and 15.70 % Forskolin and 12.14 % Forskolin and 13.13 % Forskolin and 12.07 % Forskolin and 13.03 % Forskolin and the “cAMP response (% Forskolin)” value (C3aR H418^7.36A; H4187.36A, Log[C3a (M)] -8) was 24.13 % Forskolin and 25.40 % Forskolin and 25.03 % Forskolin and 14.18 % Forskolin and 21.72 % Forskolin and 18.92 % Forskolin and 21.43 % Forskolin. For the same substance, the “cAMP response (% Forskolin)” value (C3aR H418^7.36A; H4187.36A, Log[C3a (M)] -9) was 81.20 % Forskolin and 92.26 % Forskolin and 92.38 % Forskolin and 94.46 % Forskolin and 94.81 % Forskolin and 73.56 % Forskolin and 81.94 % Forskolin, the “cAMP response (% Forskolin)” value (C3aR H418^7.36A; H4187.36A, Log[C3a (M)] -10) was 97.67 % Forskolin and 104.16 % Forskolin and 99.86 % Forskolin and 96.43 % Forskolin and 93.22 % Forskolin and 100.34 % Forskolin and 90.38 % Forskolin and the “cAMP response (% Forskolin)” value (C3aR H418^7.36A; H4187.36A, Log[C3a (M)] -11) was 100.38 % Forskolin and 103.33 % Forskolin and 102.03 % Forskolin and 95.26 % Forskolin and 97.84 % Forskolin and 98.73 % Forskolin and 97.27 % Forskolin. The “cAMP response (% Forskolin)” value (C3aR H418^7.36A; H4187.36A, Log[C3a (M)] -12) was 93.49 % Forskolin and 89.91 % Forskolin and 97.60 % Forskolin and 95.65 % Forskolin and 97.38 % Forskolin and 104.40 % Forskolin and 97.91 % Forskolin, the “Mean Diff. of pIC50, WT vs. Y174A” value (C3aR Y174^ECL2A; [1]) was 0.586 and the “cAMP response (% Forskolin)” value (C3aR Y174^ECL2A; Log[C3a (M)] -7) was 9.91 % Forskolin and 12.64 % Forskolin and 15.55 % Forskolin and 17.18 % Forskolin and 6.28 % Forskolin. For the same substance, the “cAMP response (% Forskolin)” value (C3aR Y174^ECL2A; Log[C3a (M)] -8) was 29.94 % Forskolin and 34.61 % Forskolin and 37.29 % Forskolin and 78.77 % Forskolin and 47.80 % Forskolin, the “cAMP response (% Forskolin)” value (C3aR Y174^ECL2A; Log[C3a (M)] -9) was 93.29 % Forskolin and 98.24 % Forskolin and 97.28 % Forskolin and 106.07 % Forskolin and 106.88 % Forskolin and the “cAMP response (% Forskolin)” value (C3aR Y174^ECL2A; Log[C3a (M)] -10) was 95.65 % Forskolin and 102.82 % Forskolin and 100.47 % Forskolin and 102.58 % Forskolin and 97.30 % Forskolin. For the same substance, the “cAMP response (% Forskolin)” value (C3aR Y174^ECL2A; Log[C3a (M)] -11) was 98.42 % Forskolin and 110.81 % Forskolin and 110.05 % Forskolin and 103.42 % Forskolin and 89.46 % Forskolin, the “cAMP response (% Forskolin)” value (C3aR Y174^ECL2A; Log[C3a (M)] -12) was 91.57 % Forskolin and 98.11 % Forskolin and 107.79 % Forskolin and 100.25 % Forskolin and 103.20 % Forskolin and the “ΔpIC50 ± SE of Diff.” value (C3aR Y174^ECL2A; Y174^ECL2A relative to WT C3aR) was -0.59 ± 0.09. The IC50 (C3aR Y174^ECL2A; Y174^ECL2A, dose-response plot, read-out: IC50) was 8.35 nM, the “pIC50 (Replicate)” value (C3aR Y174^ECL2A; Y174^ECL2A, individual replicates) was 8.26 and 8.28 and 8.32 and 7.39 and 7.92 and the “pIC50 ± SEM (Mean)” value (C3aR Y174^ECL2A; Y174^ECL2A, mean of independent experiments) was 8.04.
